How the values were obtained:
[1] = molecular target: HIV-1 HXB2 envelope glycoprotein (Env) (HIV-1 (isolate HXB2)) (UniProt P04578)
[2] = molecular target: HIV-1 BG505 envelope glycoprotein (Env) (HIV-1 (isolate BG505)) (UniProt Q2N0S6)
[3] = molecular target: HIV-1 HXB2 envelope glycoprotein (Env) (HIV-1 (isolate HXB2)) (UniProt P04578); remark: listed apart in the source
[4] = molecular target: HIV-1 YU2 envelope glycoprotein (Env) (HIV-1 (isolate YU2)) (UniProt P35961)
[5] = molecular target: HIV-1 ZM651 envelope glycoprotein (Env) (HIV-1 (isolate ZM651))
[6] = molecular target: HIV-1 HXB2 envelope glycoprotein (Env) (HIV-1 (isolate HXB2)) (UniProt P04578); remark: listed apart in the source
[7] = molecular target: HIV-1 YU2 envelope glycoprotein (Env) (HIV-1 (isolate YU2)) (UniProt P35961); remark: listed apart in the source

Chain of UniProt P35961 (P35961 32-843): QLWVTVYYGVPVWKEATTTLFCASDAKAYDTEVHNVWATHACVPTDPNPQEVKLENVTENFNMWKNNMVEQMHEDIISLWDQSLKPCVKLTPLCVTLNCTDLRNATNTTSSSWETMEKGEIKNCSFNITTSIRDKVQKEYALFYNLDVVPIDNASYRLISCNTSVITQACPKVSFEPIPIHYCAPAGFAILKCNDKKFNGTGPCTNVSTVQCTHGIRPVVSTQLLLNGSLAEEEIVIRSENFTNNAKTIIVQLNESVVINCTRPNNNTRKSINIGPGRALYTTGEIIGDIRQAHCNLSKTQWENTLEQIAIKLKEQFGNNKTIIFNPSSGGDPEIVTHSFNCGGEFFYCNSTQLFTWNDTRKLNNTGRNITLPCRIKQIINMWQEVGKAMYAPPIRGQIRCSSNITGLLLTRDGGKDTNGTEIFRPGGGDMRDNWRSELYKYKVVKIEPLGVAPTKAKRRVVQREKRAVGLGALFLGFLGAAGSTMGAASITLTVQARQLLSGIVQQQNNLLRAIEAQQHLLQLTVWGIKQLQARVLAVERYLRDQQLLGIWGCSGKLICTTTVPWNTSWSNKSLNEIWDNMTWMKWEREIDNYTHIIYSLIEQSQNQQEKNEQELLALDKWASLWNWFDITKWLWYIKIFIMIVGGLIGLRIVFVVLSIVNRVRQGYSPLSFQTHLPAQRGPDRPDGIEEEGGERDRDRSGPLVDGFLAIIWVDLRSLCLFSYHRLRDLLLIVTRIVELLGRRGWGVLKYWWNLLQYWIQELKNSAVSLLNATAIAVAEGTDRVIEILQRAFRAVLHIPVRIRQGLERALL

Which Env-mediated cell-cell fusion (SRFA), fusion level with 10 μg/mL antibody; the pair said to be blocked is CD4 (on HeLa.CD4-DSP2 cells) with gp120 [1] does the source give for VRC03 (antibody) here?
The Env-mediated cell-cell fusion (SRFA), fusion level with 10 μg/mL antibody; the pair said to be blocked is CD4 (on HeLa.CD4-DSP2 cells) with gp120 was 53 % of control.

How did the IC50 of neutralisation of HIV-1 pseudovirus (TZM-bl assay) [2] turn out when eCD4-Ig^mim2 (Fc fusion) was run?
The IC50 of neutralisation of HIV-1 pseudovirus (TZM-bl assay) was 0.258 µg/mL.

What about the IC90 of neutralisation of HIV-1 pseudovirus (TZM-bl assay) [2] of the same substance?
The IC90 of neutralisation of HIV-1 pseudovirus (TZM-bl assay) was 0.83 µg/mL.

And the IC50 of neutralisation of HIV-1 pseudovirus (TZM-bl assay) [3]?
Its IC50 of neutralisation of HIV-1 pseudovirus (TZM-bl assay) is 0.0008 µg/mL.

And the IC90 of neutralisation of HIV-1 pseudovirus (TZM-bl assay) [3]?
The IC90 of neutralisation of HIV-1 pseudovirus (TZM-bl assay) was 0.002 µg/mL.

What about the IC50 of neutralisation of HIV-1 pseudovirus (TZM-bl assay) [4] of the same substance?
The IC50 of neutralisation of HIV-1 pseudovirus (TZM-bl assay) was 0.003 µg/mL.

What about the IC90 of neutralisation of HIV-1 pseudovirus (TZM-bl assay) [4] of the same substance?
Its IC90 of neutralisation of HIV-1 pseudovirus (TZM-bl assay) is 0.009 µg/mL.

And the IC50 of neutralisation of HIV-1 pseudovirus (TZM-bl assay) [5]?
The IC50 of neutralisation of HIV-1 pseudovirus (TZM-bl assay) was 0.468 µg/mL.

What about the IC90 of neutralisation of HIV-1 pseudovirus (TZM-bl assay) [5] of the same substance?
The IC90 of neutralisation of HIV-1 pseudovirus (TZM-bl assay) was 1.65 µg/mL.

And the Env-mediated cell-cell fusion (SRFA), CHO-DSP1 cells with HIV-1 HXB2 Env and HeLa.CD4-DSP2 cells, fusion level at 1 μg/mL (Fig 1D; concentration dependent over 10-1000 ng/mL, Fig 3A) (% of untreated control) [6]?
The Env-mediated cell-cell fusion (SRFA), CHO-DSP1 cells with HIV-1 HXB2 Env and HeLa.CD4-DSP2 cells, fusion level at 1 μg/mL (Fig 1D; concentration dependent over 10-1000 ng/mL, Fig 3A) (% of untreated control) was 18.

What about the Env-mediated cell-cell fusion (SRFA), fusion level at 260 nM (% of untreated control) [6] of the same substance?
Its Env-mediated cell-cell fusion (SRFA), fusion level at 260 nM (% of untreated control) is 2.

What about the Env-mediated cell-cell fusion (SRFA), CHO-DSP1 cells with HIV-1 YU2 Env and HeLa.CD4-DSP2 cells with CCR5, fusion level at 260 nM (% of untreated control) [7] of the same substance?
The Env-mediated cell-cell fusion (SRFA), CHO-DSP1 cells with HIV-1 YU2 Env and HeLa.CD4-DSP2 cells with CCR5, fusion level at 260 nM (% of untreated control) was 30.
